From patent publication US20040014036 come the findings set out here.

The subject of data set [1] is Gal4 full length (Saccharomyces cerevisiae). The experiment in a line: cell_activity. Conditions: yeast lacZ reporter, 5x17mer; activation dependent on Gal4 sites stated for the peptide activators.
The subject of data set [2] is Gal4(1-100)-LS201 (Saccharomyces cerevisiae). The experiment in a line: cell_activity. Conditions: yeast JPY9:RJR227 lacZ reporter; activation dependent on Gal4 sites (p75).

On to “GAL4 consensus 17mer sites (five, reporter pRJR227)”, for which the activity (beta-gal units) in data set [1] amounted to 2350; in data set [2], 5290.
